Assay results reported in patent US20090092600A1 (Dana-Farber, published 2009).

Biological target: T1, GST (glutathione-S-transferase) (UniProt P08515 1-218 = GST)
T1 construct: Control protein in the GST pull-down
Test: GST pull-down on glutathione beads, immunoblot with anti-His or anti-MUC1-C
Protocol: The binding of MUC1 to HSF1 could be direct or indirect, for example, through a third protein. To determine if the interaction between MUC1 and HSF1 is a direct, physical interaction, in vitro binding assays was performed. GST- and GST-STAT3 polypeptides were incubated with purified His-tagged MUC1-CD (similar to GST-HSF1-His-MUC1 experiments described above). The protein mixtures were then incubated with glutathione beads, which bind to the GST proteins and associated binding partners if present. The glutathione bead adsorbates were washed and immunoblotted with antibodies specific for His tags or to MUC1-C (as described above). His-tagged MUC1 was present in GST-STAT3 adsorbates but not GST-adsorbates.

T1 sequence (P08515 whole entry): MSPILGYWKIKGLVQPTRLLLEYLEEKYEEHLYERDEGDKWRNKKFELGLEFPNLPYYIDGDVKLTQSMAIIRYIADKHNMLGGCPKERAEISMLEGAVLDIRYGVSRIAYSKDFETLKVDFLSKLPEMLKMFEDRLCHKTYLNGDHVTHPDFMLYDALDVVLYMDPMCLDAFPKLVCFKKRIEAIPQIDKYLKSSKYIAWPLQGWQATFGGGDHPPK

B1: His-tagged MUC1-CD (MUC1 cytoplasmic domain) (other)
chain: CQCRRKNYGQLDIFPARDTYHPMSEYPTYHTHGRYVPPSSTDRSPYEKVSAGNGGSSLSYTNPAVAAASANL
notes: Purified recombinant protein; also called His-MUC1; not shown: His tag
binding result: no binding
